Measured values from patent US20240043537A1.
Substitutions are numbered along the chain they refer to.

B1: DART-A-M21 (bispecific antibody)
chain 1: DFVMTQSPDSLAVSLGERVTMSCKSSQSLLNSGNQKNYLTWYQQKPGQPPKLLIYWASTRESGVPDRFSGSGSGTDFTLTISSLQAEDVAVYYCQNDYSYPYTFGQGTKLEIKGGGSGGGGEVQLVESGGGLVQPGGSLRLSCAASGFTFSTYAMNWVRQAPGKGLEWVGRIRSKYNNYATYYADSVKDRFTISRDDSKNSLYLQMNSLKTEDTAVYYCVRHKNFGNSYVSFFAYWGQGTLVTVSSGGCGGGKVAALKEKVAALKEKVAALKEKVAALKE
chain 2: QAVVTQEPSLTVSPGGTVTLTCRSSTGAVTTSNYANWVQQKPGQAPRGLIGGTNKRAPWTPARFSGSLLGGKAALTITGAQAEDEADYYCALWYSNLWVFGGGTKLTVLGGGGSGGGGEVQLVQSGAELKKPGASVKVSCKASGYTFTDYYMKWVRQAPGQGLEWIGDIIPSNGATFYNQKFKGRVTITVDKSTSTAYMELSSLRSEDTAVYYCARSHLLRASWFAYWGQGTLVTVSSGGCGGGEVAALEKEVAALEKEVAALEKEVAALEK
B2: DART-A-M5 (bispecific antibody)
chain 1: B1 chain 1 with K223G, Y229G, F232W
chain 2: B1 chain 2
B3: DART-A-M10 (bispecific antibody)
chain 1: B1 chain 1 with K223G, F225I, F232W
chain 2: B1 chain 2
B4: DART-A-M20 (bispecific antibody)
chain 1: B1 chain 1 with Y229G, F232W
chain 2: B1 chain 2
B5: DART-A-M14 (bispecific antibody)
chain 1: B1 chain 1 with T152D, K223G, F232W
chain 2: B1 chain 2
B6: DART-A-M7 (bispecific antibody)
chain 1: B1 chain 1 with K223D, F232W
chain 2: B1 chain 2
B7: DART-A-M19 (bispecific antibody)
chain 1: B1 chain 1 with F225I, F232W
chain 2: B1 chain 2
B8: DART-A-M13 (bispecific antibody)
chain 1: B1 chain 1 with K223G, F232W, Y235E
chain 2: B1 chain 2
B9: DART-A-M17 (bispecific antibody)
chain 1: B1 chain 1 with Y153T, K223G, F232W
chain 2: B1 chain 2
B10: DART-A-M15 (bispecific antibody)
chain 1: B1 chain 1 with T152E, K223G, F232W
chain 2: B1 chain 2
B11: DART-A-M12 (bispecific antibody)
chain 1: B1 chain 1 with K223G, F232Y
chain 2: B1 chain 2
B12: DART-A-M18 (bispecific antibody)
chain 1: B1 chain 1 with A154G, K223G, F232W
chain 2: B1 chain 2
B13: DART-A-M2 (bispecific antibody)
chain 1: B1 chain 1 with S231T, F232W
chain 2: B1 chain 2
B14: DART-A-M16 (bispecific antibody)
chain 1: B1 chain 1 with Y153D, K223G, F232W
chain 2: B1 chain 2

Biological target: CD3 on T-cells (UniProt P07766)
Test: cell-based or functional assay

CD3 on T-cells, sequence (P07766 23-207): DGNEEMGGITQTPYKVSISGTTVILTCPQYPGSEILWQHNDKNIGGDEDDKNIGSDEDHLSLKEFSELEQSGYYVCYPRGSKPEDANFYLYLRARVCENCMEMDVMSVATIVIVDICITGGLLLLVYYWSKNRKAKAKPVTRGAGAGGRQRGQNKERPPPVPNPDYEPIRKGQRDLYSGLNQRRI

| Binder | EC50 of cytolysis at 18 hours (CTL assay, Pan-T-cells and MOLM-13, E:T = 5:1) [ng/mL] | R: ratio of 18 hour EC50 to DART-A-WT (CTL assay, Pan-T-cells and MOLM-13, E:T = 5:1) | R: ratio of 42 hour EC50 to DART-A-WT (CTL assay, Pan-T-cells and MOLM-13, E:T = 5:1) | max % CytoTox at 18 hours (CTL assay, Pan-T-cells and MOLM-13, E:T = 5:1) [%] | max % CytoTox at 42 hours (CTL assay, Pan-T-cells and MOLM-13, E:T = 5:1) [%] | EC50 of cytolysis at 42 hours (CTL assay, Pan-T-cells and MOLM-13, E:T = 5:1) [ng/mL] |
| --- | --- | --- | --- | --- | --- | --- |
| B1 | 0.026 | 0.3 | 0 | 36.5 | 29.9 | – |
| B2 | 0.225 | 2.9 | 3.8 | 40.8 | 28.4 | 0.011 |
| B3 | 0.426 | 5.4 | 33.7 | 39.3 | 29.9 | 0.095 |
| B4 | 0.259 | 3.3 | 13.5 | 37.5 | 30.9 | 0.038 |
| B5 | 0.492 | 6.2 | 39.3 | 44.7 | 31.4 | 0.11 |
| B6 | 0.304 | 3.8 | 10.8 | 41.4 | 32.5 | 0.03 |
| B7 | 0.68 | 8.6 | 39.1 | 41 | 32.8 | 0.11 |
| B8 | 1.22 | 15.5 | 72.3 | 45.1 | 31.5 | 0.203 |
| B9 | 1.28 | 16.2 | 44.9 | 44.2 | 30.7 | 0.126 |
| B10 | 4.16 | 52.7 | 347 | 42.7 | 32 | 0.975 |
| B11 | 0.372 | 4.7 | 24 | 49.7 | 31.5 | 0.067 |
| B12 | 4.69 | 59.3 | 324 | 41.3 | 30.6 | 0.91 |
| B13 | 8.11 | 103 | 247 | 32.3 | 32.8 | 0.693 |

Biological target: CD3 (as used for the BIACORE kinetics of Table 11) (UniProt P07766)
Test: SPR (BIACORE)

CD3 (as used for the BIACORE kinetics of Table 11), sequence (P07766 23-126): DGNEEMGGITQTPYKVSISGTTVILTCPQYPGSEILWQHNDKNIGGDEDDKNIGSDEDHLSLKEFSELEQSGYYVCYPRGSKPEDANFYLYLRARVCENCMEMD

| Binder | Kd [nM] | R (KD ratio to DART-A-WT) | R (ka ratio to DART-A-WT) | R (kd ratio to DART-A-WT) | koff [s⁻¹] | kon [M⁻¹ s⁻¹] |
| --- | --- | --- | --- | --- | --- | --- |
| B1 | 4.18 | 0.5 | 4.9 | 2.5 | 0.0103 | 2.45e+06 |
| B2 | 21.4 | 2.6 | 2.6 | 6.8 | 0.028 | 1.31e+06 |
| B3 | 43.3 | 5.3 | 1.4 | 7.6 | 0.031 | 717000 |
| B4 | 18.9 | 2.3 | 7.7 | 18 | 0.0732 | 3.87e+06 |
| B5 | 46.6 | 5.7 | 0.6 | 3.5 | 0.0143 | 308000 |
| B6 | 22.5 | 2.8 | 2 | 5.6 | 0.0229 | 1.02e+06 |
| B7 | 54.6 | 6.7 | 1.5 | 10 | 0.0411 | 753000 |
| B8 | 68.6 | 8.4 | 0.6 | 5.4 | 0.022 | 321000 |
| B9 | 57.2 | 7 | 1.7 | 12 | 0.0478 | 837000 |
| B10 | 107 | 13 | 0.7 | 9.2 | 0.0375 | 352000 |
| B11 | 12.8 | 1.6 | 1.7 | 2.7 | 0.0111 | 866000 |
| B12 | 205 | 25 | 0.6 | 14 | 0.0588 | 287000 |
| B13 | 12.7 | 1.6 | 6.1 | 9.6 | 0.0391 | 3.07e+06 |
| B14 | 301 | 37 | 0.7 | 25 | 0.104 | 347000 |
